Here are results for one substance from paper PMC12780147.

In one assay the target is CD127 (IL-7Rα) (UniProt P16871). The assay can be described thus: BLI. (BLI is a label-free optical method that tracks binding on a fibre tip over time.)
The target in assay [1] is TGF-β1 (not stated (human TGF-β1 stated for the reporter assay only)). Put plainly: BLI.

By Kd is commonly meant the concentration at which binding is half-saturated. A lower Kd goes with a tighter complex.

CD127 (IL-7Rα), sequence (P16871 21-459): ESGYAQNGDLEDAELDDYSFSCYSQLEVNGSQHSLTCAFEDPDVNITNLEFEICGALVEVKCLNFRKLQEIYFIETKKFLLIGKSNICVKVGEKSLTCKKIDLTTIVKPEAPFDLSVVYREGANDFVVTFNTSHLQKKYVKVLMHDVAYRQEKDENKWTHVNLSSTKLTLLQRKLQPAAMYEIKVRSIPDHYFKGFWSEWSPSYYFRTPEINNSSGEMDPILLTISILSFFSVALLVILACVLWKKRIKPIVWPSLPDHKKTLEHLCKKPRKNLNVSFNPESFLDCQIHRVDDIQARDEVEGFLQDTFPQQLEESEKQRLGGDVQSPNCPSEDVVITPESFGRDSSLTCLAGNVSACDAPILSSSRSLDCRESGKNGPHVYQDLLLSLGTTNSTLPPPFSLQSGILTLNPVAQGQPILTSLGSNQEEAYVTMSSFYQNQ

As to “rhIL-7-hyFc-sTBRII (IL7-TBRII), bifunctional fusion protein (from UniProt P13232 26-177; P37173 23-166) (Fc fusion)”, the Kd with CD127 (IL-7Rα) was found to be 6.91 nM; in assay [1], 0.145 nM.
